Publication PMC9482650, “Quantitative fragmentomics allow affinity mapping of interactomes” (Nature Communications, 2022)
Values belong to the binder of their own block, whether it stands above or below them.

Key:
Experiment in all cases: holdup assay
Design in all cases: key: below the threshold = too weak to quantify, mostly under pKd 3.1 to 4
CARD11, Q9BXL7 = biological target: T1, CARD11, Q9BXL7
T1 sequence (Q9BXL7 662-765, limits assumed, looked up): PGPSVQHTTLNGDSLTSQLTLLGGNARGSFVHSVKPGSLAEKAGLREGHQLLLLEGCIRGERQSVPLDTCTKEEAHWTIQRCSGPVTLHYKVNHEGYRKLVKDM

GRIP1_7, Q9Y3R0 = biological target: T2, GRIP1_7, Q9Y3R0
T2 sequence (Q9Y3R0 999-1096, limits assumed, looked up): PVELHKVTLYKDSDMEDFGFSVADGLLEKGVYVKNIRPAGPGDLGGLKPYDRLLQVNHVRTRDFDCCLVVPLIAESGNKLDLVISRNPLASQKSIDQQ

GRIP2_4, Q9C0E4 = biological target: GRIP2_4, Q9C0E4
IL16_1, Q14005 = biological target: IL16_1, Q14005
CASK, O14936 = biological target: CASK, O14936
ARHGEF12, Q9NZN5-2 = biological target: ARHGEF12, Q9NZN5-2
APBA2_2, Q99767 = biological target: T3, APBA2_2, Q99767
T3 sequence (Q99767 654-744, limits assumed, looked up): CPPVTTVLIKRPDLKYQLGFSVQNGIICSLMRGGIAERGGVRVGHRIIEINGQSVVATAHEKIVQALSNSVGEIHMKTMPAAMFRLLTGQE

NHERF3_3, Q5T2W1 = biological target: T4, NHERF3_3, Q5T2W1
T4 sequence (Q5T2W1 238-333, limits assumed, looked up): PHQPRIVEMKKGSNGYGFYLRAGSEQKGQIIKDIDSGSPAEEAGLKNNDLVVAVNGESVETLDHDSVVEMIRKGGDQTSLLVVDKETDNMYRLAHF

SIPA1L2, Q9P2F8 = biological target: T5, SIPA1L2, Q9P2F8
T5 sequence (Q9P2F8 945-1036, limits assumed, looked up): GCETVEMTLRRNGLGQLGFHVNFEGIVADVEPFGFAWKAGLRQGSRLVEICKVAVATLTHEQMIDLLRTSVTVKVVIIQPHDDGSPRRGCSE

MAGI2_5, Q86UL8 = biological target: MAGI2_5, Q86UL8
MAGI2_2, Q86UL8 = biological target: MAGI2_2, Q86UL8
MAGI1_1, Q96QZ7 = biological target: MAGI1_1, Q96QZ7
Inadl_6, Q8NI35 = biological target: Inadl_6, Q8NI35
GRIP1_2, Q9Y3R0 = biological target: T6, GRIP1_2, Q9Y3R0
T6 sequence (Q9Y3R0 145-248, limits assumed, looked up): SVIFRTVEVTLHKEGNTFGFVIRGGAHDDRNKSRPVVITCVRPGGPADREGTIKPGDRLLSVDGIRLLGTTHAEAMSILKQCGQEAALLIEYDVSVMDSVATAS

GRID2IP_2, A4D2P6 = biological target: GRID2IP_2, A4D2P6
NHERF4_4, Q86UT5 = biological target: NHERF4_4, Q86UT5
GRID2IP_1, A4D2P6 = biological target: GRID2IP_1, A4D2P6
DFNB31_1, Q9P202 = biological target: T7, DFNB31_1, Q9P202
T7 sequence (Q9P202 135-233, limits assumed, looked up): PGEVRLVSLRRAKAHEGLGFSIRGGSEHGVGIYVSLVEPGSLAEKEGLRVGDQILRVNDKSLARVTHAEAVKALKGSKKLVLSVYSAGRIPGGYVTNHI

GRIP1_3, Q9Y3R0 = biological target: T8, GRIP1_3, Q9Y3R0
T8 sequence (Q9Y3R0 247-346, limits assumed, looked up): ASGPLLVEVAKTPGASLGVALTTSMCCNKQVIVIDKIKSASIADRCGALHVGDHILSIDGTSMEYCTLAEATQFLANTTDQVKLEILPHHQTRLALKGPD

LNX1_2, Q8TBB1 = biological target: LNX1_2, Q8TBB1
MPDZ_12, O75970 = biological target: T9, MPDZ_12, O75970
T9 sequence (O75970 1857-1958, limits assumed, looked up): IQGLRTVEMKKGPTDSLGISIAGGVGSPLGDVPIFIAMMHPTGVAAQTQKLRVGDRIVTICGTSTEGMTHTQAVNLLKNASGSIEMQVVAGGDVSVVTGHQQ

Inadl_9, Q8NI35 = biological target: Inadl_9, Q8NI35
LNX2_3, Q8N448 = biological target: T10, LNX2_3, Q8N448
T10 sequence (Q8N448 463-564, limits assumed, looked up): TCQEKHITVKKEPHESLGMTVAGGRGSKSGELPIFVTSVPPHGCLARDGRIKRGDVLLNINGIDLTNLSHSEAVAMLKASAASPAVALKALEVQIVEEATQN

FRMPD2_2, Q68DX3 = biological target: FRMPD2_2, Q68DX3
PDLIM1, O00151 = biological target: PDLIM1, O00151
LIMK2, P53671 = biological target: LIMK2, P53671
RADIL, Q96JH8 = biological target: T11, RADIL, Q96JH8
T11 sequence (Q96JH8 971-1071, limits assumed, looked up): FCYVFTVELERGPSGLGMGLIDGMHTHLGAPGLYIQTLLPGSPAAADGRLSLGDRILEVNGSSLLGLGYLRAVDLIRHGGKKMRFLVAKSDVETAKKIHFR

[1] = plain residues with an end cap or a label only (N-terminal biotin on a linker: ahx)
[2] = plain residues with an end cap or a label only (N-terminal biotin on a linker: gsgsgs; C-terminal amide)

FRMPD2_2, Q68DX3, sequence (Q68DX3 944-1038): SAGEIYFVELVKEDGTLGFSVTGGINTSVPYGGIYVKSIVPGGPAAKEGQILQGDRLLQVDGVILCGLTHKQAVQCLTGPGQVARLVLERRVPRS
PDLIM1, O00151, sequence (O00151 1-87): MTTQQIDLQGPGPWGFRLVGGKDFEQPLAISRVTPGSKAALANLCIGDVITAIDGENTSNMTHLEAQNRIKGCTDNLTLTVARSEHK
ARHGEF12, Q9NZN5-2, sequence (Q9NZN5 other isoform, or with tags, fused parts or gaps): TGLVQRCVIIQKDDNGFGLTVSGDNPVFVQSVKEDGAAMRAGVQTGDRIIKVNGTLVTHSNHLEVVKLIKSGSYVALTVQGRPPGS
LNX1_2, Q8TBB1, sequence (Q8TBB1 371-470): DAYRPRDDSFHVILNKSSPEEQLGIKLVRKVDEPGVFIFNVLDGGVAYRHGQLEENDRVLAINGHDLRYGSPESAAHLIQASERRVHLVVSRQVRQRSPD
NHERF4_4, Q86UT5, sequence (Q86UT5 464-550): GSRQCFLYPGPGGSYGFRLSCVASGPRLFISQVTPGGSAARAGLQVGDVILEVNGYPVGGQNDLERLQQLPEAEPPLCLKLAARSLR
MAGI1_1, Q96QZ7, sequence (Q96QZ7 1-106): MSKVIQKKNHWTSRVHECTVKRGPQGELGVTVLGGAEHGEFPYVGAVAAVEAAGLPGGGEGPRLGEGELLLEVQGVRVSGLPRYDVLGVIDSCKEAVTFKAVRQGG
GRID2IP_2, A4D2P6, sequence (A4D2P6 272-370): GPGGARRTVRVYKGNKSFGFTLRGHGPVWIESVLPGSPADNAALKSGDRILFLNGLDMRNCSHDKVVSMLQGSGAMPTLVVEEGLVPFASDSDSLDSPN
Inadl_6, Q8NI35, sequence (Q8NI35 1058-1167): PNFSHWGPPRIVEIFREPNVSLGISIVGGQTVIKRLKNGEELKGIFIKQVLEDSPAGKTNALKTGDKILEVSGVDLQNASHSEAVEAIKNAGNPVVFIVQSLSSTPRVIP
GRID2IP_1, A4D2P6, sequence (A4D2P6 1-87): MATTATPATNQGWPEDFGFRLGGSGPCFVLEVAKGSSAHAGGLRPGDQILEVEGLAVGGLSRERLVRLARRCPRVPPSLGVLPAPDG
MAGI2_2, Q86UL8, sequence (Q86UL8 410-522): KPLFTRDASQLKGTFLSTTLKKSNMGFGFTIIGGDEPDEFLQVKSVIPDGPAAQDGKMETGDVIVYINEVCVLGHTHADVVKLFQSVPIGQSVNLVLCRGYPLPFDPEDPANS
CASK, O14936, sequence (O14936 487-570): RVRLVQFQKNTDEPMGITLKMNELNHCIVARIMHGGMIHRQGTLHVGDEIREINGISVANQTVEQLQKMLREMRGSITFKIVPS
IL16_1, Q14005, sequence (Q14005 210-306): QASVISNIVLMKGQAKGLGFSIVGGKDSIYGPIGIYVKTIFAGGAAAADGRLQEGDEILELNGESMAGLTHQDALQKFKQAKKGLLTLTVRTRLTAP
LIMK2, P53671, sequence (P53671 143-248): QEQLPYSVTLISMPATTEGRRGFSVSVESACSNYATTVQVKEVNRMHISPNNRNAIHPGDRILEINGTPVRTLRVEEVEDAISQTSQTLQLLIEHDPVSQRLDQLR
GRIP2_4, Q9C0E4, sequence (Q9C0E4 446-548): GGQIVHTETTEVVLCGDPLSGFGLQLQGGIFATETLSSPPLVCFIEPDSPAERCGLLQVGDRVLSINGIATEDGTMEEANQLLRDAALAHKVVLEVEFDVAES
MAGI2_5, Q86UL8, sequence (Q86UL8 915-1017): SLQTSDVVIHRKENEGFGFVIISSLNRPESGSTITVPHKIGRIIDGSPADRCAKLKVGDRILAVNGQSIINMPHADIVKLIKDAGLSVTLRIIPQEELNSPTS
Inadl_9, Q8NI35, sequence (Q8NI35 1530-1615): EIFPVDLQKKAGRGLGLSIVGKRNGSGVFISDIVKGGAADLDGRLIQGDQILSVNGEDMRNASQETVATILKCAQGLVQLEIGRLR

pKd (CARD11, Q9BXL7; [1]): below the threshold
pKd (GRIP1_7, Q9Y3R0; [1]): below the threshold
pKd (GRIP2_4, Q9C0E4; [1]): below the threshold
pKd (IL16_1, Q14005; [1]): below the threshold
pKd (CASK, O14936; [1]): below the threshold
pKd (ARHGEF12, Q9NZN5-2; [1]): below the threshold
pKd (APBA2_2, Q99767; [1]): below the threshold
pKd (NHERF3_3, Q5T2W1; [1]): below the threshold
pKd (SIPA1L2, Q9P2F8; [1]): below the threshold
pKd (MAGI2_5, Q86UL8; [1]): below the threshold
pKd (MAGI2_2, Q86UL8; [1]): below the threshold
pKd (MAGI1_1, Q96QZ7; [1]): below the threshold
pKd (Inadl_6, Q8NI35; [1]): below the threshold
pKd (GRIP1_2, Q9Y3R0; [1]): below the threshold
pKd (GRID2IP_2, A4D2P6; [1]): below the threshold
pKd (NHERF4_4, Q86UT5; [1]): below the threshold
pKd (GRID2IP_1, A4D2P6; [1]): below the threshold
pKd (DFNB31_1, Q9P202; [1]): below the threshold
pKd (GRIP1_3, Q9Y3R0; [1]): below the threshold
pKd (LNX1_2, Q8TBB1; [1]): below the threshold
pKd (MPDZ_12, O75970; [1]): below the threshold
pKd (Inadl_9, Q8NI35; [1]): below the threshold
pKd (LNX2_3, Q8N448; [1]): below the threshold
pKd (FRMPD2_2, Q68DX3; [1]): below the threshold
pKd (PDLIM1, O00151; [1]): below the threshold
pKd (LIMK2, P53671; [1]): below the threshold
pKd (RADIL, Q96JH8; [1]): below the threshold
B1: PDLIM4, P50479;P50479-2 (peptide)
chain: PSASCAVTAA

pKd (CARD11, Q9BXL7; [2]): below the threshold
pKd (GRIP1_7, Q9Y3R0; [2]): below the threshold
pKd (GRIP2_4, Q9C0E4; [2]): below the threshold
pKd (IL16_1, Q14005; [2]): below the threshold
pKd (CASK, O14936; [2]): below the threshold
pKd (ARHGEF12, Q9NZN5-2; [2]): below the threshold
pKd (APBA2_2, Q99767; [2]): below the threshold
pKd (NHERF3_3, Q5T2W1; [2]): below the threshold
pKd (SIPA1L2, Q9P2F8; [2]): below the threshold
pKd (MAGI2_5, Q86UL8; [2]): below the threshold
pKd (MAGI2_2, Q86UL8; [2]): below the threshold
pKd (MAGI1_1, Q96QZ7; [2]): below the threshold
pKd (Inadl_6, Q8NI35; [2]): below the threshold
pKd (GRIP1_2, Q9Y3R0; [2]): below the threshold
pKd (GRID2IP_2, A4D2P6; [2]): below the threshold
pKd (NHERF4_4, Q86UT5; [2]): below the threshold
pKd (GRID2IP_1, A4D2P6; [2]): below the threshold
pKd (DFNB31_1, Q9P202; [2]): below the threshold
pKd (GRIP1_3, Q9Y3R0; [2]): below the threshold
pKd (LNX1_2, Q8TBB1; [2]): below the threshold
pKd (MPDZ_12, O75970; [2]): below the threshold
pKd (Inadl_9, Q8NI35; [2]): below the threshold
pKd (LNX2_3, Q8N448; [2]): below the threshold
pKd (FRMPD2_2, Q68DX3; [2]): below the threshold
pKd (PDLIM1, O00151; [2]): below the threshold
pKd (LIMK2, P53671; [2]): below the threshold
pKd (RADIL, Q96JH8; [2]): below the threshold
B2: DFNB31_int, Q9P202 (peptide)
chain: VSVDDVRSTSQGLSSY

pKd (CARD11, Q9BXL7; [1]): below the threshold
pKd (GRIP1_7, Q9Y3R0; [1]): below the threshold
pKd (GRIP2_4, Q9C0E4; [1]): below the threshold
pKd (IL16_1, Q14005; [1]): 4.54
pKd (CASK, O14936; [1]): below the threshold
pKd (ARHGEF12, Q9NZN5-2; [1]): below the threshold
pKd (APBA2_2, Q99767; [1]): below the threshold
pKd (NHERF3_3, Q5T2W1; [1]): below the threshold
pKd (SIPA1L2, Q9P2F8; [1]): below the threshold
pKd (MAGI2_5, Q86UL8; [1]): 4.35
pKd (MAGI2_2, Q86UL8; [1]): 4.26
pKd (MAGI1_1, Q96QZ7; [1]): below the threshold
pKd (Inadl_6, Q8NI35; [1]): 3.55
pKd (GRIP1_2, Q9Y3R0; [1]): below the threshold
pKd (GRID2IP_2, A4D2P6; [1]): 3.95
pKd (NHERF4_4, Q86UT5; [1]): below the threshold
pKd (GRID2IP_1, A4D2P6; [1]): below the threshold
pKd (DFNB31_1, Q9P202; [1]): below the threshold
pKd (GRIP1_3, Q9Y3R0; [1]): below the threshold
pKd (LNX1_2, Q8TBB1; [1]): 3.99
pKd (MPDZ_12, O75970; [1]): 3.84
pKd (Inadl_9, Q8NI35; [1]): 3.99
pKd (LNX2_3, Q8N448; [1]): 3.65
pKd (FRMPD2_2, Q68DX3; [1]): 3.85
pKd (PDLIM1, O00151; [1]): 4.31
pKd (LIMK2, P53671; [1]): below the threshold
pKd (RADIL, Q96JH8; [1]): 4.91
B3: LNX2, Q8N448 (peptide)
chain: TVICWPGSLV
